Experiments:
[1] = biological target: CT-MRAP2, C-terminal domain of MRAP2 fused to a poly-his tag (human) (UniProt Q96G30); assay: SDS-PAGE; purified His-tagged CT-MRAP2 resolved by SDS-PAGE under denaturing conditions, anti-His blot
[2] = biological target: CT-MRAP2, C-terminal domain of MRAP2 fused to a poly-his tag (human) (UniProt Q96G30); assay: native gel or EMSA; blue native PAGE of 20 μg purified C-terminal MRAP2 domain, 3% to 16% Bis-Tris gel, 0 °C, anti-His blot; molecular weights only approximate

With “CT-MRAP2, C-terminal domain of MRAP2 fused to a poly-his tag (from UniProt Q96G30 76-205) (domain or fragment)” as the substance, how does the stoichiometry N [1] read?
The stoichiometry N was 2.

And the stoichiometry N [2]?
Its stoichiometry N is 2.
